The target in experiment [1] is T1, IL-4Rα on human primary cells (primary B cells, whole blood B and T cells, PBMCs) (human, UniProt P24394 26-825).
T1 sequence (looked up): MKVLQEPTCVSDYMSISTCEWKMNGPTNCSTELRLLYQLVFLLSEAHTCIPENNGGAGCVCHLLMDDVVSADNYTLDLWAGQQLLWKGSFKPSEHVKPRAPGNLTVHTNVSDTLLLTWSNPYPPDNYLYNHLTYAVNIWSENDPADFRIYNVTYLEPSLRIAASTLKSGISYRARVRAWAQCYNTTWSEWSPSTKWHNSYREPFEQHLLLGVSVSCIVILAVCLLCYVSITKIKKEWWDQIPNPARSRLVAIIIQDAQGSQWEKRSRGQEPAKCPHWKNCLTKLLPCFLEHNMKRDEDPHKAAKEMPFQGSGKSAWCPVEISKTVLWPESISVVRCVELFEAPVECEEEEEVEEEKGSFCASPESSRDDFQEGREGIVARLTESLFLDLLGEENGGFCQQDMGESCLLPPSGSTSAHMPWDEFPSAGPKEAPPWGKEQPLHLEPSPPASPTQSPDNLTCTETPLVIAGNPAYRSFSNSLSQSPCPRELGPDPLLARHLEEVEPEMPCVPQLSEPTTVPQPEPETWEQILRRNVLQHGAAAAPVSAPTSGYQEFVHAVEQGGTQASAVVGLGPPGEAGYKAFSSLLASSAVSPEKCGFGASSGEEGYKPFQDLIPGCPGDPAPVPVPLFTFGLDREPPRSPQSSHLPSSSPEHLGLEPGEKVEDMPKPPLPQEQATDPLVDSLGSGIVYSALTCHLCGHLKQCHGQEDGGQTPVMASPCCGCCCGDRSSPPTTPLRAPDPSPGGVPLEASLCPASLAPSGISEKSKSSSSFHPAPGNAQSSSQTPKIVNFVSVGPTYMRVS
Put plainly: cell-based or functional assay.

The target in experiment [2] is T2, human IL-4Rα (interleukin 4 receptor subunit alpha) (human, UniProt P24394 26-232, limits assumed).
T2 sequence (looked up): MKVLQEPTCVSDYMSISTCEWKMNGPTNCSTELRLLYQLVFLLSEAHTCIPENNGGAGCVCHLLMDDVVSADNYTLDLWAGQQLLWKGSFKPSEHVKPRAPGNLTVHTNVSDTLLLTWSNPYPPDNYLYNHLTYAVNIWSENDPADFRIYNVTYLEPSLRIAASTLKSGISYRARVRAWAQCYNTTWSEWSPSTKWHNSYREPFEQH
Kind of experiment: SPR, Carterra LSA non-regenerative capture kinetics; antibody captured on goat anti-human polyclonal lawn, human IL-4Rα as analyte, 25 C, 1:1 model; average ± SD of technical replicates. (Surface plasmon resonance follows binding to a sensor surface in real time, without labels.)

Experiment [3] has as its target T2, human IL-4Rα (interleukin 4 receptor …). Put plainly: SPR, Biacore 8K+ multi-cycle capture kinetics; antibody captured on goat anti-human polyclonal surface, human IL-4Rα as analyte, 25 C, 1:1 model.

Where only a bound is given, the exact number is not on record here.

B1: Reference Antibody (antibody, human IgG4 S228P, kappa, V domains shown)
VH: EVQLVESGGGLEQPGGSLRLSCAGSGFTFRDYAMTWVRQAPGKGLEWVSSISGSGGNTYYADSVKGRFTISRDNSKNTLYLQMNSLRAEDTAVYYCAKDRLSITIRPRYYGLDVWGQGTTVTVSS
VL: DIVMTQSPLSLPVTPGEPASISCRSSQSLLYSIGYNYLDWYLQKSGQSPQLLIYLGSNRASGVPDRFSGSGSGTDFTLKISRVEAEDVGFYYCMQALQTPYTFGQGTKLEIKR
With B1, in experiment [1], the “Inhibition of CD23 Expression by Primary B cells (IC50), Donor 13” value (shortened to “Inhibition of CD23 Expression … Donor 13”) is 22 nM; the “Inhibition of CD23 Expression by Primary B cells (IC50), Donor 52” value (“Inhibition of CD23 Expression … Donor 52” below) came out at 11.9 nM; the “Inhibition of CD23 Expression by Primary B cells (IC50), Donor 53” value (from here on “Inhibition of CD23 Expression … Donor 53”) was determined as 18 nM; the “Inhibition of CD23 Expression by Primary B cells (IC50), Donor 56” value (shortened to “Inhibition of CD23 Expression … Donor 56”) worked out at 29.8 nM.

B2: AB-10c (antibody, human IgG4 S228P, kappa, V domains shown)
VH: EVQLVESGGGLEQPGGSLRLSCAGSGFTFRDYAMTWVRQAPGKGLEWVSSISGSGDKTYYADSVKGRFTISRDNSKNTLYLQMNSLRAEDTAVYYCARDRLSSSARPVYVGLDVWGQGTTVTVSS
VL: DIVMTQSPLSLPVTPGEPASISCRSSQSLLYSVGKNYLDWYLQKSGQSPQLLIYLASNRASGVPDRFSGSGSGTDFTLKISRVEAEDVGFYYCMQDLFHPYTFGQGTKLEIKR
notes: hIgG4 WT, kappa
The term Kd denotes a measure of binding affinity in units of concentration. A low value points to a tighter complex. As for B2, binding in experiment [2] was characterised by a dissociation constant (Kd) of 546 nM.

B3: AB-7c (antibody, human IgG4 S228P, kappa, V domains shown)
VH: EVQLVESGGGLEQPGGSLRLSCAGSGFTFRDYAMTWVRQAPGKGLEWVSSISGSGSTTYYADSVKGRFTISRDNSKNTLYLQMNSLRAEDTAVYYCAKDRLTASVRPIYVGLDVWGQGTTVTVSS
VL: DIVMTQSPLSLPVTPGEPASISCRSSQSLLYSEGYNYLDWYLQKSGQSPQLLIYLASNRASGVPDRFSGSGSGTDFTLKISRVEAEDVGFYYCMQTLKTPYTFGQGTKLEIKR
notes: hIgG4 WT, kappa
B3 returned a Kd in experiment [2] of 0.3 nM.

B4: AB-5c (antibody, human IgG4 S228P, kappa)
heavy: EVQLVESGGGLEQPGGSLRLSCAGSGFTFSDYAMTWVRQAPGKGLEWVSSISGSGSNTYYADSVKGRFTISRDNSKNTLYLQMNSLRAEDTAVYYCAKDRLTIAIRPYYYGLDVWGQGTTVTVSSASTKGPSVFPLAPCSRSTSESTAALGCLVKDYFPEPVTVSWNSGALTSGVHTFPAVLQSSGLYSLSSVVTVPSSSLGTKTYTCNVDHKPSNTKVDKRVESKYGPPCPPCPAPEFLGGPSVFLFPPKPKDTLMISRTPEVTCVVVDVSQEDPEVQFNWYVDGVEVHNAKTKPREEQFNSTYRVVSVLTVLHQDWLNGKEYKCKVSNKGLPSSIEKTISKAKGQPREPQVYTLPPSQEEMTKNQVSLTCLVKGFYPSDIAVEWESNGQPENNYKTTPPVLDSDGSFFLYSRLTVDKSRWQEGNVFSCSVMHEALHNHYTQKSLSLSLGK
light: DIVMTQSPLSLPVTPGEPASISCRSSQSLDYSIGYNYLDWYLQKSGQSPQLLIYLASNRASGVPDRFSGSGSGTDFTLKISRVEAEDVGFYYCMQALQTPYTFGQGTKLEIKRTVAAPSVFIFPPSDEQLKSGTASVVCLLNNFYPREAKVQWKVDNALQSGNSQESVTEQDSKDSTYSLSSTLTLSKADYEKHKVYACEVTHQGLSSPVTKSFNRGEC
notes: hIgG4 WT, kappa
For the molecule B4, binding in experiment [2] was characterised by a dissociation constant (Kd) of 2.37 nM.

B5: AB-4c (antibody, human IgG4 S228P, kappa)
heavy: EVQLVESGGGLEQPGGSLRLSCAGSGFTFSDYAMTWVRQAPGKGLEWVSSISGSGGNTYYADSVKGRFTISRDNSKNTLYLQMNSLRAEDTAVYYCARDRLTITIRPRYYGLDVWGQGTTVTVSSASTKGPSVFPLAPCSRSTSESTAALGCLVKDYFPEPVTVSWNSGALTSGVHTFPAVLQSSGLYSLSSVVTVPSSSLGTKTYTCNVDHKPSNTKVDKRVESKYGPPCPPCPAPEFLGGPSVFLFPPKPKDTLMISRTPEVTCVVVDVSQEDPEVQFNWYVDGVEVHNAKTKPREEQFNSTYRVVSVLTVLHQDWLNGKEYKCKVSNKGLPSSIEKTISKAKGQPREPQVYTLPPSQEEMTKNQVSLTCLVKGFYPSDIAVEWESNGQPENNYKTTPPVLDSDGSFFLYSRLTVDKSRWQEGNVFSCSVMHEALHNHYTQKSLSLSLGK
light: DIVMTQSPLSLPVTPGEPASISCRSSQSLLYSTGYNYLDWYLQKSGQSPQLLIYLASNRASGVPDRFSGSGSGTDFTLKISRVEAEDVGFYYCMQALSTPYTFGQGTKLEIKRTVAAPSVFIFPPSDEQLKSGTASVVCLLNNFYPREAKVQWKVDNALQSGNSQESVTEQDSKDSTYSLSSTLTLSKADYEKHKVYACEVTHQGLSSPVTKSFNRGEC
notes: hIgG4 WT, kappa
Molecule B5 gave a dissociation constant Kd in experiment [2] of 0.56 nM.

B6: AB-12c (antibody, human IgG4 S228P, kappa)
heavy: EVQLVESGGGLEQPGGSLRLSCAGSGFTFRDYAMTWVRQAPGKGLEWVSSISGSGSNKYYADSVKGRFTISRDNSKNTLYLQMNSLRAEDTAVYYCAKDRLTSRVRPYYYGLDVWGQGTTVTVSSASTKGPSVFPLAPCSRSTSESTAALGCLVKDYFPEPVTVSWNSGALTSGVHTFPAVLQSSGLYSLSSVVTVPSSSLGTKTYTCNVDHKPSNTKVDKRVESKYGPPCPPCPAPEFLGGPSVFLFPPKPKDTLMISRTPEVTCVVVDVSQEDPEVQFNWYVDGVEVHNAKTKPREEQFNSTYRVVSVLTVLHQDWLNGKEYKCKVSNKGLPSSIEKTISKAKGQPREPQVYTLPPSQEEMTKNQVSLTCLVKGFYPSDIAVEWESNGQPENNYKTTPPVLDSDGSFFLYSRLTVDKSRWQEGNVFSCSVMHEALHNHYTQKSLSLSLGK
light: DIVMTQSPLSLPVTPGEPASISCRSSQSLLYSQGYNYLDWYLQKSGQSPQLLIYLASNRASGVPDRFSGSGSGTDFTLKISRVEAEDVGFYYCMQSLFTPYTFGQGTKLEIKRTVAAPSVFIFPPSDEQLKSGTASVVCLLNNFYPREAKVQWKVDNALQSGNSQESVTEQDSKDSTYSLSSTLTLSKADYEKHKVYACEVTHQGLSSPVTKSFNRGEC
notes: hIgG4 WT, kappa
B6: the Kd in experiment [2] is not above 0.09 nM.

B7: AB-11c (antibody, human IgG4 S228P, kappa, V domains shown)
VH: EVQLVESGGGLEQPGGSLRLSCAGSGFTFRDYAMTWVRQAPGKGLEWVSSISGSGTNTYYADSVKGRFTISRDNSKNTLYLQMNSLRAEDTAVYYCAKDRLSVSTRPKYYGLDVWGQGTTVTVSS
VL: DIVMTQSPLSLPVTPGEPASISCRSSQSLDYSYGYNYLDWYLQKSGQSPQLLIYLASNRASGVPDRFSGSGSGTDFTLKISRVEAEDVGFYYCMQSLHTPYTFGQGTKLEIKR
notes: hIgG4 WT, kappa
B7: the Kd in experiment [2] stood at 0.83 nM.

B8: AB-6c (antibody, human IgG4 S228P, kappa)
heavy: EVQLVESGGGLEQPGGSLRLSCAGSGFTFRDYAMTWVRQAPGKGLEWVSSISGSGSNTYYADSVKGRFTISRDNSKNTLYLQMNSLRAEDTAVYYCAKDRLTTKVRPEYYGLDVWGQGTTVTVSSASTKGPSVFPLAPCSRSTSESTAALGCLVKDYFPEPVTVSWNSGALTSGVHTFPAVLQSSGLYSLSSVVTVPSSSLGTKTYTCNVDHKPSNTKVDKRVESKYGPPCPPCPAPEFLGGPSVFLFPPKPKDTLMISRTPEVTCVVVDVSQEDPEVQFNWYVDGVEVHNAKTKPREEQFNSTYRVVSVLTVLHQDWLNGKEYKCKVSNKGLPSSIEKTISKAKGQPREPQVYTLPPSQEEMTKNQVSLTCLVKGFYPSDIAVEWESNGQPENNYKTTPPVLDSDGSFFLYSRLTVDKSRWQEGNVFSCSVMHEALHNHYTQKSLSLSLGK
light: DIVMTQSPLSLPVTPGEPASISCRSSQSLLYSIGYNYLDWYLQKSGQSPQLLIYLASNRASGVPDRFSGSGSGTDFTLKISRVEAEDVGFYYCMQSLQTPYTFGQGTKLEIKRTVAAPSVFIFPPSDEQLKSGTASVVCLLNNFYPREAKVQWKVDNALQSGNSQESVTEQDSKDSTYSLSSTLTLSKADYEKHKVYACEVTHQGLSSPVTKSFNRGEC
notes: hIgG4 WT, kappa
On to B8, for which the Kd in experiment [2] is not above 0.1 nM.

B9: AB-2c (antibody, human IgG4 S228P, kappa, V domains shown)
VH: EVQLVESGGGLEQPGGSLRLSCAGSGFTFRDYAMTWVRQAPGKGLEWVSSISGSGSNTYYADSVKGRFTISRDNSKNTLYLQMNSLRAEDTAVYYCARDRLTAAVRPYYYGLDVWGQGTTVTVSS
VL: DIVMTQSPLSLPVTPGEPASISCRSSQSLDYSSGYNYLDWYLQKSGQSPQLLIYLASNRASGVPDRFSGSGSGTDFTLKISRVEAEDVGFYYCMQSLQTPYTFGQGTKLEIKR
notes: hIgG4 WT, kappa
For the molecule B9, the Kd in experiment [2] was determined as 50.7 nM.

B10: AB-8c (antibody, human IgG4 S228P, kappa, V domains shown)
VH: EVQLVESGGGLEQPGGSLRLSCAGSGFTFRDYAMTWVRQAPGKGLEWVSSISGSGSNTYYADSVKGRFTISRDNSKNTLYLQMNSLRAEDTAVYYCAKDRLTASVRPNYYGLDVWGQGTTVTVSS
VL: DIVMTQSPLSLPVTPGEPASISCRSSQSLLYSEGYNYLDWYLQKSGQSPQLLIYLASNRASGVPDRFSGSGSGTDFTLKISRVEAEDVGFYYCMQSLTTPYTFGQGTKLEIKR
notes: hIgG4 WT, kappa
The molecule B10 displayed a Kd in experiment [2] of 0.85 nM.

B11: AB-13b (antibody, human IgG4 S228P, kappa)
heavy: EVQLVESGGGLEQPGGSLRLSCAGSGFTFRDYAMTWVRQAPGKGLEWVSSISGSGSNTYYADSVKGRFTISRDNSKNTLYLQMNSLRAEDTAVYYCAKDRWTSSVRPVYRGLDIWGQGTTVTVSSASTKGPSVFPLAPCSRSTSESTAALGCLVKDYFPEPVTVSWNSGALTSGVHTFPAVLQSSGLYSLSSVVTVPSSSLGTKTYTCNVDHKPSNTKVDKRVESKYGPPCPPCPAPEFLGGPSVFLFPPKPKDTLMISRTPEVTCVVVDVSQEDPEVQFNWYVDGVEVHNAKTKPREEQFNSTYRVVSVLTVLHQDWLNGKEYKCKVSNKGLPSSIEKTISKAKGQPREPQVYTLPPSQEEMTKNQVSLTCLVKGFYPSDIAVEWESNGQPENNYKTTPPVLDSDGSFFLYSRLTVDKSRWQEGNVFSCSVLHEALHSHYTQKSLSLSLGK
light: DIVMTQSPLSLPVTPGEPASISCRSSQSLLYSHGYNYLDWYLQKSGQSPQLLIYLASNRASGVPDRFSGSGSGTDFTLKISRVEAEDVGFYYCMQSLYTPYTFGQGTKLEIKRTVAAPSVFIFPPSDEQLKSGTASVVCLLNNFYPREAKVQWKVDNALQSGNSQESVTEQDSKDSTYSLSSTLTLSKADYEKHKVYACEVTHQGLSSPVTKSFNRGEC
notes: hIgG4 LS variant, kappa
In general, koff refers to a measure of how fast the partners let go of each other. The term kon denotes a measure of how fast the partners come together. Consider B11, for which, in experiment [1], the “Inhibition of CD23 Expression … Donor 13” value turned out to be 30.1 nM; the “Inhibition of CD23 Expression … Donor 52” value came to 34.4 nM; the “Inhibition of CD23 Expression … Donor 53” value was found to be 35.9 nM; the “Inhibition of CD23 Expression … Donor 56” value was found to be 54.2 nM. Further, in experiment [3], the Kd was 0.0249 nM, the koff came to 2.19e-05 s⁻¹ and the kon was determined as 881000 M⁻¹ s⁻¹.

B12: AB-13a (antibody, human IgG4 S228P, kappa)
heavy: EVQLVESGGGLEQPGGSLRLSCAGSGFTFRDYAMTWVRQAPGKGLEWVSSISGSGSNTYYADSVKGRFTISRDNSKNTLYLQMNSLRAEDTAVYYCAKDRWTSSVRPVYRGLDIWGQGTTVTVSSASTKGPSVFPLAPCSRSTSESTAALGCLVKDYFPEPVTVSWNSGALTSGVHTFPAVLQSSGLYSLSSVVTVPSSSLGTKTYTCNVDHKPSNTKVDKRVESKYGPPCPPCPAPEFLGGPSVFLFPPKPKDTLYITREPEVTCVVVDVSQEDPEVQFNWYVDGVEVHNAKTKPREEQFNSTYRVVSVLTVLHQDWLNGKEYKCKVSNKGLPSSIEKTISKAKGQPREPQVYTLPPSQEEMTKNQVSLTCLVKGFYPSDIAVEWESNGQPENNYKTTPPVLDSDGSFFLYSRLTVDKSRWQEGNVFSCSVMHEALHNHYTQKSLSLSLGK
light: DIVMTQSPLSLPVTPGEPASISCRSSQSLLYSHGYNYLDWYLQKSGQSPQLLIYLASNRASGVPDRFSGSGSGTDFTLKISRVEAEDVGFYYCMQSLYTPYTFGQGTKLEIKRTVAAPSVFIFPPSDEQLKSGTASVVCLLNNFYPREAKVQWKVDNALQSGNSQESVTEQDSKDSTYSLSSTLTLSKADYEKHKVYACEVTHQGLSSPVTKSFNRGEC
notes: hIgG4 YTE variant, kappa
B12: in experiment [1], the “Inhibition of CD23 Expression … Donor 13” value is 27.5 nM; the “Inhibition of CD23 Expression … Donor 52” value was 17.8 nM; the “Inhibition of CD23 Expression … Donor 53” value was found to be 40.6 nM; the “Inhibition of CD23 Expression … Donor 56” value was 54.4 nM. Besides, in experiment [3], the Kd came to 0.0333 nM, the koff turned out to be 2.59e-05 s⁻¹ and the kon was 778000 M⁻¹ s⁻¹.

B13: AB-13d (antibody, human IgG1, kappa)
heavy: not shown
light: DIVMTQSPLSLPVTPGEPASISCRSSQSLLYSHGYNYLDWYLQKSGQSPQLLIYLASNRASGVPDRFSGSGSGTDFTLKISRVEAEDVGFYYCMQSLYTPYTFGQGTKLEIKRTVAAPSVFIFPPSDEQLKSGTASVVCLLNNFYPREAKVQWKVDNALQSGNSQESVTEQDSKDSTYSLSSTLTLSKADYEKHKVYACEVTHQGLSSPVTKSFNRGEC
notes: hIgG1, kappa
For the molecule B13, in experiment [3], binding was put at a Kd of 0.0326 nM, the koff stood at 2.57e-05 s⁻¹ and the kon worked out at 789000 M⁻¹ s⁻¹.

These data come from patent US20260008857A1 (FLAGSHIP PIONEERING INNOVATIONS VI, published 2026).
